B1: Telomere repeats-binding bouquet formation protein 1 (Mus musculus), Q8C0V1-1 (parent)
chain: MESEKPKKTQEMKTDLKLLLECLKYHMGNPLSQKEVLITIHSVCKQNSDAGIYFREIGGLMFIINLAKSSEQSLVKEAALYTLGSIAEENVYCQQSLCTSELFQDLTGLLTNDDSNTNLKRMSVYVLLVLVSNNRNGQTLVREVGCIEVLSQMFRTVLSNYELNLSDNSVFQSYLLWSSVCSTLCVCVNNPQNDENQMLCCSLFPCVNEWLMNCMRPEVIRPICSFIGLTLANNTHAQNCFVSSGGLDVLCQVLVQLESDSHNTLSSAKLAVIVTKTMDACITDNSAAFTVVLSKYHIVSTLLALLLHESLDSREKFSIILAIGHCTEDCEKNQYELLKNNGLPLMIQALTEFKNEDLSKAATYVLHNCKKITGKLSLSLGQNSFGENEIELKDISEKETLREHWKAAKEILCRIKQFEKGGKEEKQQNRSGHYKDNTPSMKVNIQTNLKRLCADSTGGTRAEDKDINQSRELRSYKPSEIMSKACANENQLTTRKKNTNPVHPFCKEKGQSKIVHETTPSCAQNLDKEKTFDQKDSVSQSSDQVLKHLPHTVKNRKQVPETDPFTLCLDIIDREVGIQATDSCSRMLKYTCSGCIVARKLLNSRNFSKFLHSCAYQCVHHKVIMEAEDKYKNELRKTFICAKKILLTPCRRRQLCKESTASEELKIVHQKPDSKKLPGLEAQALNTSIPEAMERRSPVPGQSGLHKKRRIRKDFTKEEVNYLFHGVKTMGNHWNSILWSFPFQKGRRAVDLAHKYHRLIKGPSCAAL
partner: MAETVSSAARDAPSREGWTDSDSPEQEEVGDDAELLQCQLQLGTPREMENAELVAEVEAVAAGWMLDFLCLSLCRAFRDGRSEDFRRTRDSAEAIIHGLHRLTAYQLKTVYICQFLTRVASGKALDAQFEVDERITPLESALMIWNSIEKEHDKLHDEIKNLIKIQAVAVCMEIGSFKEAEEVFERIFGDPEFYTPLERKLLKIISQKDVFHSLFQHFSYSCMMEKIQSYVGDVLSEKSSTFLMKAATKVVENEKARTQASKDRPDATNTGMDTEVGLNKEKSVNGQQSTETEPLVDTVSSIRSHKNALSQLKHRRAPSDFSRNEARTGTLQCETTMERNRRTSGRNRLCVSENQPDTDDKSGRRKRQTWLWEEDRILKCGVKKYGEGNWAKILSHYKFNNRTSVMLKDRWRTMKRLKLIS

Variants of: B1
Settings: with terf1_mouse Terf1, P70371

Variant	effect of a mutation on the interaction
T648D	disrupting interaction strength

Source: IntAct's records for PubMed 24413433
